Data taken from article PMC9675814, “DNA mechanical flexibility controls DNA potential to activate cGAS-mediated immune surveillance”.

How the values were obtained:
hcGAS WT [1] = target: T1, hcGAS WT (Homo sapiens, UniProt Q8N884 1-522); test: MST; details: EMSA: 50 nM Cy3-DNA, 20 mM Tris-HCl pH 7.5, 150 mM NaCl, 37 C 30 min, 1.5% agarose, MST: 50 nM Cy5-DNA, same buffer, room temperature, MARTFQ: 50 nM cGAS
hcGAS WT [2] = target: T1, hcGAS WT; test: MARTFQ fluorescence quenching; EMSA: 50 nM Cy3-DNA, 20 mM Tris-HCl pH 7.5, 150 mM NaCl, 37 C 30 min, 1.5% agarose; MST: 50 nM Cy5-DNA, same buffer, room temperature; MARTFQ: 50 nM cGAS, DNA titration, 5 min; details: protein: recombinant, tags: His (pET-28a, Ni purified)
hcGAS WT [3] = target: T1, hcGAS WT; test: EMSA; EMSA: 50 nM Cy3-DNA, 20 mM Tris-HCl pH 7.5, 150 mM NaCl, 37 C 30 min, 1.5% agarose; MST: 50 nM Cy5-DNA, same buffer, room temperature; MARTFQ: 50 nM cGAS, DNA titration, 5 min; details: protein: recombinant, tags: His (pET-28a, Ni purified), label: 5' Cy3 on F (EMSA)
[4] = blunt, self-complementary strands

T1 sequence (Q8N884 whole entry): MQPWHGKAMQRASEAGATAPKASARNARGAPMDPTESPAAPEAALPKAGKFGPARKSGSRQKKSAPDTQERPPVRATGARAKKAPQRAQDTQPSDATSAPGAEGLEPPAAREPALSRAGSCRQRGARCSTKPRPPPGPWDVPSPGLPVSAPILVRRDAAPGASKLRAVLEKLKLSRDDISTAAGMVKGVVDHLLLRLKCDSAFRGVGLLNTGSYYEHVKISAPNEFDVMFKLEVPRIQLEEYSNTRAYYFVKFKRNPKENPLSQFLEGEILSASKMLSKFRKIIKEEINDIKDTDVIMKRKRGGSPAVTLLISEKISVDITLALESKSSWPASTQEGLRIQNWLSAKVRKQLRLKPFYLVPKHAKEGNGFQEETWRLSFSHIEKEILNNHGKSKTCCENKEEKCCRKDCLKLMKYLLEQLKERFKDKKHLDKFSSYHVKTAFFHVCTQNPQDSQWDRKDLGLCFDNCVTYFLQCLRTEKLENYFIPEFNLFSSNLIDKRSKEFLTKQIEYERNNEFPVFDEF

Ctrl ISD
Kd (hcGAS WT [1]): 1.27 µM

Nick ISD
Kd (hcGAS WT [1]; nick): 0.15 µM

Mis ISD
Kd (hcGAS WT [1]; mismatch): 0.108 µM

8-OdG ISD
Kd (hcGAS WT [1]; 8-oxo-dG): 0.0979 µM

Gap ISD
Kd (hcGAS WT [1]; gap): 0.0758 µM

B1: pA:pT 44 bp (dsDNA)
DNA 1: AAAAAAAAAAAAAAAAAAAAAAAAAAAAAAAAAAAAAAAAAAAA
DNA 2: TTTTTTTTTTTTTTTTTTTTTTTTTTTTTTTTTTTTTTTTTTTT
Kd (hcGAS WT [2]; blunt): 3.46 ± 0.637 µM

B2: Gap pA:pT 44 bp (dsDNA)
DNA 1: AAAAAAAAAAAAAAAAAAAAAAAAAAAAAAAAAAAAAAAAAAAA
DNA 2: TTTTTTTTTTTTTTTTTTTTTT
DNA 3: TTTTTTTTTTTTTTTTTTTTT
modifications: 1 nt gap in dT strand
Kd (hcGAS WT [2]; gapped duplex, three strands): 0.19 ± 0.0352 µM

B3: E8 63 bp (dsDNA)
DNA 1: TTTTATTTATCGCCTCCACGGTGCTGCACGTACGCGCTGTTGGCCGTGTTATCTCGAGTTAGT
DNA 2: ACTAACTCGAGATAACACGGCCAACAGCGCGTACGTGCAGCACCGTGGAGGCGATAAATAAAA
binding result (hcGAS WT [3]; blunt): binds

B4: Gap E8A26 63 bp (dsDNA)
DNA 1: TTTTATTTATCGCCTCCTTTTTTTTTTTTTTTTTTTTTTTTTTCCGTGTTATCTCGAGTTAGT
DNA 2: ACTAACTCGAGATAACACGGAAA
DNA 3: AAAAAAAAAAAAAAAAAAAAAAGGAGGCGATAAATAAAA
modifications: 1 nt gap in R strand
binding result (hcGAS WT [3]; gapped duplex, three strands): binds

B5: pGC 44 bp poly(dG:dC) (dsDNA)
DNA 1: CGCGCGCGCGCGCGCGCGCGCGCGCGCGCGCGCGCGCGCGCGCG
DNA 2: CGCGCGCGCGCGCGCGCGCGCGCGCGCGCGCGCGCGCGCGCGCG
Kd (hcGAS WT [2]; [4]): 0.376 ± 0.0788 µM

B6: pAT 44 bp poly(dA:dT) (dsDNA)
DNA 1: ATATATATATATATATATATATATATATATATATATATATATAT
DNA 2: ATATATATATATATATATATATATATATATATATATATATATAT
Kd (hcGAS WT [2]; [4]): 0.64 ± 0.123 µM
